Data on 20 molecules can be found in patent US20110118131A1 (published 2011).

T1: Ep-CAM (UniProt P16422 24-265, limits assumed)
T1 construct: Antigen of the Biacore analysis of ING-1 variants
T1 sequence (looked up): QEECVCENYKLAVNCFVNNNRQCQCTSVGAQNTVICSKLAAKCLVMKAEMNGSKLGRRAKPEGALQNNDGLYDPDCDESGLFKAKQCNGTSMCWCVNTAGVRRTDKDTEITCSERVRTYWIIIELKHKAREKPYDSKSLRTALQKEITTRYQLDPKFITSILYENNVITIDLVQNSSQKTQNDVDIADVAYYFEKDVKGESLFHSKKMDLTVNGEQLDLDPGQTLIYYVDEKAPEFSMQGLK

B1: ING-1 heavy chain W50E (Fab, V domains shown)
VH: QIQLVQSGPELKKPGETVKISCKASGYTFTKYGMNWVKQAPGKGLKWMGEINTYTEEPTYGDDFKGRFAFSLETSASTANLQINNLKSEDTATYFCARFGSAVDYWGQGTSVTVSS
VL: DIVMTQAAFSNPVTLGTSGSISCRSSKSLLHSNGITYLYWYLQKPGQSPQLLIYQMSNLASGVPDRFSSSGSGTDFTLRISRVEAEDVGVYYCAQNLELPRTFGGGTKLEMKR
B2: ING-1 heavy chain W50F (Fab, V domains shown)
VH: QIQLVQSGPELKKPGETVKISCKASGYTFTKYGMNWVKQAPGKGLKWMGFINTYTEEPTYGDDFKGRFAFSLETSASTANLQINNLKSEDTATYFCARFGSAVDYWGQGTSVTVSS
VL: DIVMTQAAFSNPVTLGTSGSISCRSSKSLLHSNGITYLYWYLQKPGQSPQLLIYQMSNLASGVPDRFSSSGSGTDFTLRISRVEAEDVGVYYCAQNLELPRTFGGGTKLEMKR
B3: ING-1 heavy chain Y105K (Fab, V domains shown)
VH: QIQLVQSGPELKKPGETVKISCKASGYTFTKYGMNWVKQAPGKGLKWMGWINTYTEEPTYGDDFKGRFAFSLETSASTANLQINNLKSEDTATYFCARFGSAVDKWGQGTSVTVSS
VL: DIVMTQAAFSNPVTLGTSGSISCRSSKSLLHSNGITYLYWYLQKPGQSPQLLIYQMSNLASGVPDRFSSSGSGTDFTLRISRVEAEDVGVYYCAQNLELPRTFGGGTKLEMKR
B4: ING-1 heavy chain Y32S (Fab, V domains shown)
VH: QIQLVQSGPELKKPGETVKISCKASGYTFTKSGMNWVKQAPGKGLKWMGWINTYTEEPTYGDDFKGRFAFSLETSASTANLQINNLKSEDTATYFCARFGSAVDYWGQGTSVTVSS
VL: DIVMTQAAFSNPVTLGTSGSISCRSSKSLLHSNGITYLYWYLQKPGQSPQLLIYQMSNLASGVPDRFSSSGSGTDFTLRISRVEAEDVGVYYCAQNLELPRTFGGGTKLEMKR
B5: ING-1 heavy chain Y32Q (Fab, V domains shown)
VH: QIQLVQSGPELKKPGETVKISCKASGYTFTKQGMNWVKQAPGKGLKWMGWINTYTEEPTYGDDFKGRFAFSLETSASTANLQINNLKSEDTATYFCARFGSAVDYWGQGTSVTVSS
VL: DIVMTQAAFSNPVTLGTSGSISCRSSKSLLHSNGITYLYWYLQKPGQSPQLLIYQMSNLASGVPDRFSSSGSGTDFTLRISRVEAEDVGVYYCAQNLELPRTFGGGTKLEMKR
B6: ING-1 heavy chain W50N (Fab, V domains shown)
VH: QIQLVQSGPELKKPGETVKISCKASGYTFTKYGMNWVKQAPGKGLKWMGNINTYTEEPTYGDDFKGRFAFSLETSASTANLQINNLKSEDTATYFCARFGSAVDYWGQGTSVTVSS
VL: DIVMTQAAFSNPVTLGTSGSISCRSSKSLLHSNGITYLYWYLQKPGQSPQLLIYQMSNLASGVPDRFSSSGSGTDFTLRISRVEAEDVGVYYCAQNLELPRTFGGGTKLEMKR
B7: ING-1 heavy chain W50S (Fab, V domains shown)
VH: QIQLVQSGPELKKPGETVKISCKASGYTFTKYGMNWVKQAPGKGLKWMGSINTYTEEPTYGDDFKGRFAFSLETSASTANLQINNLKSEDTATYFCARFGSAVDYWGQGTSVTVSS
VL: DIVMTQAAFSNPVTLGTSGSISCRSSKSLLHSNGITYLYWYLQKPGQSPQLLIYQMSNLASGVPDRFSSSGSGTDFTLRISRVEAEDVGVYYCAQNLELPRTFGGGTKLEMKR
B8: ING-1 heavy chain W50Y (Fab, V domains shown)
VH: QIQLVQSGPELKKPGETVKISCKASGYTFTKYGMNWVKQAPGKGLKWMGYINTYTEEPTYGDDFKGRFAFSLETSASTANLQINNLKSEDTATYFCARFGSAVDYWGQGTSVTVSS
VL: DIVMTQAAFSNPVTLGTSGSISCRSSKSLLHSNGITYLYWYLQKPGQSPQLLIYQMSNLASGVPDRFSSSGSGTDFTLRISRVEAEDVGVYYCAQNLELPRTFGGGTKLEMKR
B9: ING-1 heavy chain Y54E (Fab, V domains shown)
VH: QIQLVQSGPELKKPGETVKISCKASGYTFTKYGMNWVKQAPGKGLKWMGWINTETEEPTYGDDFKGRFAFSLETSASTANLQINNLKSEDTATYFCARFGSAVDYWGQGTSVTVSS
VL: DIVMTQAAFSNPVTLGTSGSISCRSSKSLLHSNGITYLYWYLQKPGQSPQLLIYQMSNLASGVPDRFSSSGSGTDFTLRISRVEAEDVGVYYCAQNLELPRTFGGGTKLEMKR
B10: ING-1 heavy chain Y105E (Fab, V domains shown)
VH: QIQLVQSGPELKKPGETVKISCKASGYTFTKYGMNWVKQAPGKGLKWMGWINTYTEEPTYGDDFKGRFAFSLETSASTANLQINNLKSEDTATYFCARFGSAVDEWGQGTSVTVSS
VL: DIVMTQAAFSNPVTLGTSGSISCRSSKSLLHSNGITYLYWYLQKPGQSPQLLIYQMSNLASGVPDRFSSSGSGTDFTLRISRVEAEDVGVYYCAQNLELPRTFGGGTKLEMKR
B11: ING-1 heavy chain Y32H (Fab, V domains shown)
VH: QIQLVQSGPELKKPGETVKISCKASGYTFTKHGMNWVKQAPGKGLKWMGWINTYTEEPTYGDDFKGRFAFSLETSASTANLQINNLKSEDTATYFCARFGSAVDYWGQGTSVTVSS
VL: DIVMTQAAFSNPVTLGTSGSISCRSSKSLLHSNGITYLYWYLQKPGQSPQLLIYQMSNLASGVPDRFSSSGSGTDFTLRISRVEAEDVGVYYCAQNLELPRTFGGGTKLEMKR
B12: ING-1 heavy chain Y32E (Fab, V domains shown)
VH: QIQLVQSGPELKKPGETVKISCKASGYTFTKEGMNWVKQAPGKGLKWMGWINTYTEEPTYGDDFKGRFAFSLETSASTANLQINNLKSEDTATYFCARFGSAVDYWGQGTSVTVSS
VL: DIVMTQAAFSNPVTLGTSGSISCRSSKSLLHSNGITYLYWYLQKPGQSPQLLIYQMSNLASGVPDRFSSSGSGTDFTLRISRVEAEDVGVYYCAQNLELPRTFGGGTKLEMKR
B13: ING-1 heavy chain Y54H (Fab, V domains shown)
VH: QIQLVQSGPELKKPGETVKISCKASGYTFTKYGMNWVKQAPGKGLKWMGWINTHTEEPTYGDDFKGRFAFSLETSASTANLQINNLKSEDTATYFCARFGSAVDYWGQGTSVTVSS
VL: DIVMTQAAFSNPVTLGTSGSISCRSSKSLLHSNGITYLYWYLQKPGQSPQLLIYQMSNLASGVPDRFSSSGSGTDFTLRISRVEAEDVGVYYCAQNLELPRTFGGGTKLEMKR
B14: ING-1 heavy chain Y54D (Fab, V domains shown)
VH: QIQLVQSGPELKKPGETVKISCKASGYTFTKYGMNWVKQAPGKGLKWMGWINTDTEEPTYGDDFKGRFAFSLETSASTANLQINNLKSEDTATYFCARFGSAVDYWGQGTSVTVSS
VL: DIVMTQAAFSNPVTLGTSGSISCRSSKSLLHSNGITYLYWYLQKPGQSPQLLIYQMSNLASGVPDRFSSSGSGTDFTLRISRVEAEDVGVYYCAQNLELPRTFGGGTKLEMKR
B15: ING-1 heavy chain W50R (Fab, V domains shown)
VH: QIQLVQSGPELKKPGETVKISCKASGYTFTKYGMNWVKQAPGKGLKWMGRINTYTEEPTYGDDFKGRFAFSLETSASTANLQINNLKSEDTATYFCARFGSAVDYWGQGTSVTVSS
VL: DIVMTQAAFSNPVTLGTSGSISCRSSKSLLHSNGITYLYWYLQKPGQSPQLLIYQMSNLASGVPDRFSSSGSGTDFTLRISRVEAEDVGVYYCAQNLELPRTFGGGTKLEMKR
B16: ING-1 heavy chain W50H (Fab, V domains shown)
VH: QIQLVQSGPELKKPGETVKISCKASGYTFTKYGMNWVKQAPGKGLKWMGHINTYTEEPTYGDDFKGRFAFSLETSASTANLQINNLKSEDTATYFCARFGSAVDYWGQGTSVTVSS
VL: DIVMTQAAFSNPVTLGTSGSISCRSSKSLLHSNGITYLYWYLQKPGQSPQLLIYQMSNLASGVPDRFSSSGSGTDFTLRISRVEAEDVGVYYCAQNLELPRTFGGGTKLEMKR
B17: ING-1 heavy chain W50Q (Fab, V domains shown)
VH: QIQLVQSGPELKKPGETVKISCKASGYTFTKYGMNWVKQAPGKGLKWMGQINTYTEEPTYGDDFKGRFAFSLETSASTANLQINNLKSEDTATYFCARFGSAVDYWGQGTSVTVSS
VL: DIVMTQAAFSNPVTLGTSGSISCRSSKSLLHSNGITYLYWYLQKPGQSPQLLIYQMSNLASGVPDRFSSSGSGTDFTLRISRVEAEDVGVYYCAQNLELPRTFGGGTKLEMKR
B18: ING-1 heavy chain Y32K (Fab, V domains shown)
VH: QIQLVQSGPELKKPGETVKISCKASGYTFTKKGMNWVKQAPGKGLKWMGWINTYTEEPTYGDDFKGRFAFSLETSASTANLQINNLKSEDTATYFCARFGSAVDYWGQGTSVTVSS
VL: DIVMTQAAFSNPVTLGTSGSISCRSSKSLLHSNGITYLYWYLQKPGQSPQLLIYQMSNLASGVPDRFSSSGSGTDFTLRISRVEAEDVGVYYCAQNLELPRTFGGGTKLEMKR
B19: ING-1 heavy chain Y105D (Fab, V domains shown)
VH: QIQLVQSGPELKKPGETVKISCKASGYTFTKYGMNWVKQAPGKGLKWMGWINTYTEEPTYGDDFKGRFAFSLETSASTANLQINNLKSEDTATYFCARFGSAVDDWGQGTSVTVSS
VL: DIVMTQAAFSNPVTLGTSGSISCRSSKSLLHSNGITYLYWYLQKPGQSPQLLIYQMSNLASGVPDRFSSSGSGTDFTLRISRVEAEDVGVYYCAQNLELPRTFGGGTKLEMKR
B20: ING-1 heavy chain W50K (Fab, V domains shown)
VH: QIQLVQSGPELKKPGETVKISCKASGYTFTKYGMNWVKQAPGKGLKWMGKINTYTEEPTYGDDFKGRFAFSLETSASTANLQINNLKSEDTATYFCARFGSAVDYWGQGTSVTVSS
VL: DIVMTQAAFSNPVTLGTSGSISCRSSKSLLHSNGITYLYWYLQKPGQSPQLLIYQMSNLASGVPDRFSSSGSGTDFTLRISRVEAEDVGVYYCAQNLELPRTFGGGTKLEMKR

The target in this assay is T1, Ep-CAM. As to the kind of experiment: Biacore, Fab periplasmic extract. (In SPR one partner is held on a chip, and binding of the other changes the refractive index at the surface.)
Consider B1, for which the binding result was “no binding”.

On to B2, for which the “fold difference in affinity vs original” value is 0.09 fold.

In the case of B3, the binding result is “no binding”.

B4: the “fold difference in affinity vs original” value was found to be 0.01 fold.

Take B5: the “fold difference in affinity vs original” value worked out at 0.1 fold.

On to B6, for which the “fold difference in affinity vs original” value was 0.03 fold.

Consider B7, for which the “fold difference in affinity vs original” value turned out to be 0.02 fold.

For the molecule B8, the “fold difference in affinity vs original” value amounted to 0.04 fold.

Regarding B9, the “fold difference in affinity vs original” value was determined as 0.07 fold.

For B10, the binding result is “no binding”.

As for B11, the “fold difference in affinity vs original” value was 0.6 fold.

Regarding B12, the “fold difference in affinity vs original” value is 0.08 fold.

B13: the “fold difference in affinity vs original” value was 1 fold.

As to B14, the “fold difference in affinity vs original” value is 0.05 fold.

With B15, the “fold difference in affinity vs original” value turned out to be 0.1 fold.

Turning to B16, the “fold difference in affinity vs original” value came to 0.02 fold.

As to B17, the “fold difference in affinity vs original” value was found to be 0.01 fold.

For the molecule B18, the “fold difference in affinity vs original” value was found to be 0.08 fold.

For the molecule B19, the binding result is “no binding”.

As for B20, the “fold difference in affinity vs original” value is 0.04 fold.
